From patent publication US20260167720A1 (Amgen, published 2026) come the findings set out here.

Common to all, as to assay: cell-based or functional assay
The target in assay [1] is T1, CDH3 (Cadherin-3, P-Cadherin) on HCT116 or GSU cells (UniProt P22223 108-829, limits assumed).
Assay [2] has as its target T2, MSLN (Mesothelin) on HCT116 or GSU cells (UniProt Q13421 37-598, limits assumed).
Assay [3] deals with T1, CDH3 (Cadherin-3, P-Cadherin) on HCT116 …. This is another data set of the same source.
In assay [4] the target is T2, MSLN (Mesothelin) on HCT116 or GSU cells. The source holds these as a separate data set.

B1: MSLN-CDH3 T-cell engager molecule 4 (example to FIG. 2B) (bispecific antibody)
chain 1: not shown
chain 2: EVQLVESGGGLVQPGGSLKLSCAASGFTFNKYAMNWVRQAPGKGMEWVARIRSKYNNYATYYADAVKDRFTISRDDSKNTLYLQMNNLKTEDTAVYYCVRAGNFGSSYISYFAYWGQGTLVTVSSGGGGQGGGGQGGGGQQTVVTQEPSLTVSPGGTVTITCGSSTGAVTSGNYPNWIQKKPGQAPRGLIGGTKFLAPGTPARFSGSLEGGKAALTLSGVQPEDEAEYYCVLYYSNRWVFGSGTKLTVLGGGGQGGGGQGGGGQDKTHTCPPCPAPELLGGPSVFLFPPKPKDTLMISRTPEVTCVVVDVSHEDPEVKFNWYVDGVEVHNAKTKPCEEQYGSTYRCVSVLTVLHQDWLNGKEYKCKVSNKALPAPIEKTISKAKGQPREPQVYTLPPSRKEMTKNQVSLTCLVKGFYPSDIAVEWESNGQPENNYKTTPPVLKSDGSFFLYSKLTVDKSRWQQGNVFSCSVMHEALHNHYTQKSLSLSPGKGGGGQGGGGQGGGGQQVQLQESGPGLVKPSETLSLTCTVSGGSISSSSYFWGWIRQPPGKCLEWIGNIYYSGSSNYNPSLKSRVTISVDTSKNQFSLKLSSVTAADTAVYYCARLPRGDRDAFDIWGQGTMVTVSSGGGGQGGGGQGGGGQEIVMTQSPSSLSASVGDRVTITCRASQGISNYLAWYQQKPGKVPKLLIYAASTLQSGVPSRFSGSGSGTDFTLTISSLQPEDFATYYCQQSYSTPFTFGCGTKVEIK
B1: in assay [1], the “EC50 HCT116 KO MSLN [pM]; TDCC, MSLN knocked out, CDH3 left” value (shortened to “EC50 HCT116 KO MSLN [pM]; TDCC”) was determined as 0.62 pM; the “EC50 HCT116 WT [pM]; TDCC, cells double positive for CDH3 and MSLN” value (“EC50 HCT116 WT [pM]; TDCC” below) worked out at 0.027 pM. Also, in assay [2], the “EC50 HCT116 KO CDH3 [pM]; TDCC, CDH3 knocked out, MSLN left” value (“EC50 HCT116 KO CDH3 [pM]; TDCC” for short) came out at 3.5 pM; the “EC50 HCT116 WT [pM]; TDCC” value amounted to 0.027 pM. Besides, in assay [3], the “EC50 GSU KO MSLN [pM]; TDCC, MSLN knocked out, CDH3 left” value (shortened to “EC50 GSU KO MSLN [pM]; TDCC”) turned out to be 36.8 pM; the “EC50 GSU WT [pM]; TDCC, cells double positive for CDH3 and MSLN” value (“EC50 GSU WT [pM]; TDCC” for short) worked out at 0.098 pM. In assay [4], the “EC50 GSU KO CDH3 [pM]; TDCC, CDH3 knocked out, MSLN left” value (shortened to “EC50 GSU KO CDH3 [pM]; TDCC”) is 2.89 pM; the “EC50 GSU WT [pM]; TDCC” value was found to be 0.098 pM.

B2: MSLN-CDH3 T-cell engager molecule 1 (scFc single chain) (bispecific antibody)
chain: QVQLVQSGAEVKKPGASVKVSCKASGYTFTNYWMNWVRQAPGQCLEWMGNIAYGVAGTNYNQKFQGRVTMTVDTSSSTAYMELSRLRSDDTAVYYCATRYFYVMDYWGQGTLVTVSSGGGGQGGGGQGGGGQEIQMTQSPSSLSASVGDRVTITCRASQDISNYLNWYQQKPGKVPKLLIYYTSRLHSGVPSRFSGSGSGTDFTLTISSLQPEDVATYYCVQYAQFPLTFGCGTKVEIKSGGGGQEVQLVESGGGLVQPGGSLKLSCAASGFTFNKYAMNWVRQAPGKGMEWVARIRSKYNNYATYYADAVKDRFTISRDDSKNTLYLQMNNLKTEDTAVYYCVRAGNFGSSYISYFAYWGQGTLVTVSSGGGGQGGGGQGGGGQQTVVTQEPSLTVSPGGTVTITCGSSTGAVTSGNYPNWIQKKPGQAPRGLIGGTKFLAPGTPARFSGSLEGGKAALTLSGVQPEDEAEYYCVLYYSNRWVFGSGTKLTVLGGGGCPPCPAPELLGGPSVFLFPPKPKDTLMISRTPEVTCVVVDVSHEEPEVKFNWYVDGVEVHNAKTKPCEEQYGSTYRCVSVLTVLHQDWLNGKEYKCKVSNKALPAPIEKTISKAKGQPREPQVYTLPPSREEMTKNQVSLTCLVKGFYPSDIAVEWESNGQPENNYKTTPPVLDSDGSFFLYSKLTVDKSRWQQGNVFSCSVMHEALHNHYTQKSLSLSPGKGGGGQGGGGQGGGGQGGGGQGGGGQGGGGQCPPCPAPELLGGPSVFLFPPKPKDTLMISRTPEVTCVVVDVSHEEPEVKFNWYVDGVEVHNAKTKPCEEQYGSTYRCVSVLTVLHQDWLNGKEYKCKVSNKALPAPIEKTISKAKGQPREPQVYTLPPSREEMTKNQVSLTCLVKGFYPSDIAVEWESNGQPENNYKTTPPVLDSDGSFFLYSKLTVDKSRWQQGNVFSCSVMHEALHNHYTQKSLSLSPGKGGGGQVQLQESGPGLVKPSETLSLTCTVSGGSISSSSYFWGWIRQPPGKCLEWIGNIYYSGSSNYNPSLKSRVTISVDTSKNQFSLKLSSVTAADTAVYYCARLPRGDRDAFDIWGQGTMVTVSSGGGGQGGGGQGGGGQEIVMTQSPSSLSASVGDRVTITCRASQGISNYLAWYQQKPGKVPKLLIYAASTLQSGVPSRFSGSGSGTDFTLTISSLQPEDFATYYCQQSYSTPFTFGCGTKVEIKSGGGGQEVQLVESGGGLVQPGGSLKLSCAASGFTFNKYAMNWVRQAPGKGMEWVARIRSKYNNYATYYADAVKDRFTISRDDSKNTLYLQMNNLKTEDTAVYYCVRAGNFGSSYISYFAYWGQGTLVTVSSGGGGQGGGGQGGGGQQTVVTQEPSLTVSPGGTVTITCGSSTGAVTSGNYPNWIQKKPGQAPRGLIGGTKFLAPGTPARFSGSLEGGKAALTLSGVQPEDEAEYYCVLYYSNRWVFGSGTKLTVL
Take B2: in assay [1], the “EC50 HCT116 KO MSLN [pM]; TDCC” value turned out to be 1.08 pM; the “EC50 HCT116 WT [pM]; TDCC” value worked out at 0.003 pM. For the same molecule, in assay [2], the “EC50 HCT116 KO CDH3 [pM]; TDCC” value was 1.76 pM; the “EC50 HCT116 WT [pM]; TDCC” value was determined as 0.003 pM. In assay [3], the “EC50 GSU KO MSLN [pM]; TDCC” value amounted to 103 pM; the “EC50 GSU WT [pM]; TDCC” value stood at 0.013 pM. In assay [4], the “EC50 GSU KO CDH3 [pM]; TDCC” value came out at 0.47 pM; the “EC50 GSU WT [pM]; TDCC” value turned out to be 0.013 pM.

B3: MSLN-CDH3 T-cell engager molecule 2 (heteroFc multichain) (bispecific antibody)
chain 1: QVQLVQSGAEVKKPGASVKVSCKASGYTFTNYWMNWVRQAPGQCLEWMGNIAYGVAGTNYNQKFQGRVTMTVDTSSSTAYMELSRLRSDDTAVYYCATRYFYVMDYWGQGTLVTVSSGGGGQGGGGQGGGGQEIQMTQSPSSLSASVGDRVTITCRASQDISNYLNWYQQKPGKVPKLLIYYTSRLHSGVPSRFSGSGSGTDFTLTISSLQPEDVATYYCVQYAQFPLTFGCGTKVEIKSGGGGQEVQLVESGGGLVQPGGSLKLSCAASGFTFNKYAMNWVRQAPGKGMEWVARIRSKYNNYATYYADAVKDRFTISRDDSKNTLYLQMNNLKTEDTAVYYCVRAGNFGSSYISYFAYWGQGTLVTVSSGGGGQGGGGQGGGGQQTVVTQEPSLTVSPGGTVTITCGSSTGAVTSGNYPNWIQKKPGQAPRGLIGGTKFLAPGTPARFSGSLEGGKAALTLSGVQPEDEAEYYCVLYYSNRWVFGSGTKLTVLGGGGCPPCPAPELLGGPSVFLFPPKPKDTLMISRTPEVTCVVVDVSHEDPEVKFNWYVDGVEVHNAKTKPCEEQYGSTYRCVSVLTVLHQDWLNGKEYKCKVSNKALPAPIEKTISKAKGQPREPQVYTLPPSREEMTKNQVSLTCLVKGFYPSDIAVEWESNGQPENNYDTTPPVLDSDGSFFLYSDLTVDKSRWQQGNVFSCSVMHEALHNHYTQDSLSLSPGK
chain 2: CPPCPAPELLGGPSVFLFPPKPKDTLMISRTPEVTCVVVDVSHEDPEVKFNWYVDGVEVHNAKTKPCEEQYGSTYRCVSVLTVLHQDWLNGKEYKCKVSNKALPAPIEKTISKAKGQPREPQVYTLPPSRKEMTKNQVSLTCLVKGFYPSDIAVEWESNGQPENNYKTTPPVLKSDGSFFLYSKLTVDKSRWQQGNVFSCSVMHEALHNHYTQKSLSLSPGKGGGGQVQLQESGPGLVKPSETLSLTCTVSGGSISSSSYFWGWIRQPPGKCLEWIGNIYYSGSSNYNPSLKSRVTISVDTSKNQFSLKLSSVTAADTAVYYCARLPRGDRDAFDIWGQGTMVTVSSGGGGQGGGGQGGGGQEIVMTQSPSSLSASVGDRVTITCRASQGISNYLAWYQQKPGKVPKLLIYAASTLQSGVPSRFSGSGSGTDFTLTISSLQPEDFATYYCQQSYSTPFTFGCGTKVEIKSGGGGQEVQLVESGGGLVQPGGSLKLSCAASGFTFNKYAMNWVRQAPGKGMEWVARIRSKYNNYATYYADAVKDRFTISRDDSKNTLYLQMNNLKTEDTAVYYCVRAGNFGSSYISYFAYWGQGTLVTVSSGGGGQGGGGQGGGGQQTVVTQEPSLTVSPGGTVTITCGSSTGAVTSGNYPNWIQKKPGQAPRGLIGGTKFLAPGTPARFSGSLEGGKAALTLSGVQPEDEAEYYCVLYYSNRWVFGSGTKLTVL
As for B3, in assay [1], the “EC50 HCT116 KO MSLN [pM]; TDCC” value stood at 1.77 pM; the “EC50 HCT116 WT [pM]; TDCC” value turned out to be 0.013 pM. Also, in assay [2], the “EC50 HCT116 KO CDH3 [pM]; TDCC” value was 3.48 pM; the “EC50 HCT116 WT [pM]; TDCC” value worked out at 0.013 pM. Further, in assay [3], the “EC50 GSU KO MSLN [pM]; TDCC” value worked out at 349 pM; the “EC50 GSU WT [pM]; TDCC” value came out at 0.039 pM. In assay [4], the “EC50 GSU KO CDH3 [pM]; TDCC” value came to 2.5 pM; the “EC50 GSU WT [pM]; TDCC” value amounted to 0.039 pM.

B4: MSLN-CDH3 T-cell engager molecule 3 (example to FIG. 2A) (bispecific antibody)
chain 1: not shown
chain 2: EVQLVESGGGLVQPGGSLKLSCAASGFTFNKYAMNWVRQAPGKGMEWVARIRSKYNNYATYYADAVKDRFTISRDDSKNTLYLQMNNLKTEDTAVYYCVRAGNFGSSYISYFAYWGQGTLVTVSSGGGGQGGGGQGGGGQQTVVTQEPSLTVSPGGTVTITCGSSTGAVTSGNYPNWIQKKPGQAPRGLIGGTKFLAPGTPARFSGSLEGGKAALTLSGVQPEDEAEYYCVLYYSNRWVFGSGTKLTVLGGGGQGGGGQGGGGQDKTHTCPPCPAPELLGGPSVFLFPPKPKDTLMISRTPEVTCVVVDVSHEDPEVKFNWYVDGVEVHNAKTKPCEEQYGSTYRCVSVLTVLHQDWLNGKEYKCKVSNKALPAPIEKTISKAKGQPREPQVYTLPPSRKEMTKNQVSLTCLVKGFYPSDIAVEWESNGQPENNYKTTPPVLKSDGSFFLYSKLTVDKSRWQQGNVFSCSVMHEALHNHYTQKSLSLSPGKGGGGQGGGGQGGGGQEVQLVESGGGLVQPGGSLKLSCAASGFTFNKYAMNWVRQAPGKGMEWVARIRSKYNNYATYYADAVKDRFTISRDDSKNTLYLQMNNLKTEDTAVYYCVRAGNFGSSYISYFAYWGQGTLVTVSSGGGGQGGGGQGGGGQQTVVTQEPSLTVSPGGTVTITCGSSTGAVTSGNYPNWIQKKPGQAPRGLIGGTKFLAPGTPARFSGSLEGGKAALTLSGVQPEDEAEYYCVLYYSNRWVFGSGTKLTVL
As to B4, in assay [1], the “EC50 HCT116 KO MSLN [pM]; TDCC” value is 0.38 pM; the “EC50 HCT116 WT [pM]; TDCC” value worked out at 0.005 pM. Besides, in assay [2], the “EC50 HCT116 KO CDH3 [pM]; TDCC” value came to 3.19 pM; the “EC50 HCT116 WT [pM]; TDCC” value is 0.005 pM. Moreover, in assay [3], the “EC50 GSU KO MSLN [pM]; TDCC” value amounted to 55.3 pM; the “EC50 GSU WT [pM]; TDCC” value was 0.073 pM. In assay [4], the “EC50 GSU KO CDH3 [pM]; TDCC” value is 7.5 pM; the “EC50 GSU WT [pM]; TDCC” value is 0.073 pM.
